Patent publication US8217140B2, “Peptides capable of binding to serum proteins and compounds, constructs and polypeptides comprising the same” (Ablynx N.V., priority 2008, dated 2012)
Positions count from the first letter of the chain named.

B1: 12A2_sv1-AAA-12A2_sv1-9GS-59C2-9GS-59C2 (protein)
chain: DVQLVESGGGLVQPGGSLRLSCAASGRTFSYNPMGWFRQAPGKGRELVAAISRTGGSTYYPESVEGRFTISRDNAKRTVYLQMNSLRAEDTAVYYCAAAGVRAEQGRVRTLPSEYTFWGQGTQVTVSSAAAEVQLVESGGGLVQPGGSLRLSCAASGRTFSYNPMGWFRQAPGKGRELVAAISRTGGSTYYPESVEGRFTISRDNAKRTVYLQMNSLRAEDTAVYYCAAAGVRAEQGRVRTLPSEYTFWGQGTQVTVSSGGGGSGGGSRDWDFDVFGGGTPVGGGGGGSGGGSRDWDFDVFGGGTPVGG
B2: 12A2_sv1-9GS-59C2-9GS-12A2_sv1 (protein)
chain: DVQLVESGGGLVQPGGSLRLSCAASGRTFSYNPMGWFRQAPGKGRELVAAISRTGGSTYYPESVEGRFTISRDNAKRTVYLQMNSLRAEDTAVYYCAAAGVRAEQGRVRTLPSEYTFWGQGTQVTVSSGGGGSGGGSRDWDFDVFGGGTPVGGGGGGSGGGSEVQLVESGGGLVQPGGSLRLSCAASGRTFSYNPMGWFRQAPGKGRELVAAISRTGGSTYYPESVEGRFTISRDNAKRTVYLQMNSLRAEDTAVYYCAAAGVRAEQGRVRTLPSEYTFWGQGTQVTVSS
B3: 12A2_sv1-AAA-12A2_sv1 (protein)
chain: DVQLVESGGGLVQPGGSLRLSCAASGRTFSYNPMGWFRQAPGKGRELVAAISRTGGSTYYPESVEGRFTISRDNAKRTVYLQMNSLRAEDTAVYYCAAAGVRAEQGRVRTLPSEYTFWGQGTQVTVSSAAAEVQLVESGGGLVQPGGSLRLSCAASGRTFSYNPMGWFRQAPGKGRELVAAISRTGGSTYYPESVEGRFTISRDNAKRTVYLQMNSLRAEDTAVYYCAAAGVRAEQGRVRTLPSEYTFWGQGTQVTVSS
B4: 2D3-9GS-59C2-MycHis: SEQ ID NO: 160 (protein)
chain: EVQLVESGGSLVQPGGSLRLSCAASGFTFDDYAMSWVRQVPGKGLEWVSSINWSGTHTDYADSVKGRFTISRNNANNTLYLQMNSLKSEDTAVYYCAKNWRDAGTTWFEKSGSAGQGTQVTVSSGGGGSGGGSAAARDWDFDVFGGGTPVGGAAAEQKLISEEDLNGAAHHHHHH
modifications: Myc-His tag
B5: 2D3-9GS-59H12-MycHis: SEQ ID NO: 161 (protein)
chain: B4 chain with D138S
modifications: Myc-His tag
B6: 2D3-9GS-56E4-MycHis: SEQ ID NO: 158 (protein)
chain: B4 chain with D138Y, F141Y
modifications: Myc-His tag
B7: 2D3-9GS-59F2-MycHis: SEQ ID NO: 159 (protein)
chain: B4 chain with D138Y
modifications: Myc-His tag

Columns and labels:
[1] = test system: VWF; experiment: Pharmacodynamic profile: ristocetin cofactor activity assay (% RICO) after i.v. administration; format: in vivo, Cynomolgus monkey; details: for Tonset values: estimated, i.v. application; for mean AUC under the threshold increase relative to vWF0001 / time below the threshold increase relative to vWF0001: i.v. bolus; for AUC below T / Time below T: threshold 20% RICO, male Cynomolgus monkey, mean n = 3; for AUC below T / Time below T / Tonset / Toffset: i.v. bolus 2 mg/kg; for Tonset: time % RICO first drops below threshold; for Toffset: time % RICO first returns above threshold
Experimental: For the constructs used in Example 14, pharmacodynamic characteristics upon compound administration were measured by means of a ristocetin cofactor activity assay (Biopool). The ristocetin cofactor activity is a functional assay for VWF, measuring the capacity of VWF to interact with the platelet receptor glycoprotein Ib using ristocetin as a modulator.
For pharmacodynamic data analysis, descriptive statistics (mean and SD) were calculated per dose group and per sampling time point using Microsoft Excel 2007. Response parameters and associated statistics for the overall time course were calculated by noncompartmental analysis of the response-time data using WinNonlin Pro 5.1 (Pharsight Corporation, USA; 2006). The non-compartmental analysis was based on a model for pharmacodynamic data (Model 220). The threshold value was set at 20% based on extensive historical PK/PD data on the vWF-0001 compound. Preclinical studies have shown that a complete inhibition of the pharmacodynamic marker are correlated with full antithrombotic efficacy. The following main pharmacodynamic parameters were determined: time below the threshold (Time below T), area under the threshold (AUC below T), time at which the % RICO first drops below the threshold (Tonset), and time at which the % RICO first returns back above the threshold (Toffset).

[2] = test system: platelet adhesion to fibrillar collagen; experiment: Perfusion experiments: platelet adhesion to collagen at arterial shear rate; format: cell-based, human
Experimental: The perfusion experiments were performed with a single-pass perfusion chamber under non-pulsatile flow conditions using a modified small perfusion chamber with a slit height of 0.1 mm and a slit width of 2 mm. […] Citrated human blood was preincubated at 37° C. for 5 min with or without addition of test compound, and then perfused through the chamber for 5 min at a wall shear rate of 1600 s^−1 using an infusion/withdrawal pump (pump 22, model 2400-004, Harvard Apparatus, Holliston, Mass.). After the perfusion run, the coverslips were rinsed in Hepes buffered saline (10 mM Hepes, 150 mM NaCl, pH 7.4) and platelets were fixed with 5% glutaraldehyde and stained with May-Grünwald and Giemsa. Platelet deposition of the coverslip was evaluated as platelet surface coverage of 10 randomly chosen pictures using light microscopy (Olympus BX61 microscope using Analysis Five digital imaging solutions analysis software).

[3] = cynomolgus monkey, in vivo; for AUCinf / C0: 2 mg/kg
Experimental: The pharmacokinetic profile of the constructs was analyzed in male cynomolgus monkeys of approximately 3 to 4 years old and was compared to the reference (SEQ ID NO:165). The constructs and the control were each injected in three monkeys at a dose of 2 mg/kg via an intravenous bolus injection. Blood samples were taken at predose, 5 min, 20 min, 1 h, 2 h, 4 h, 8 h (test day 1) after administration and at test days 2, 3, 5, 7, 9, 12, 15, 18, 21, 24, 27, 30, 33. In order to obtain at least 1 mL plasma per animal per sampling time, a sufficient volume of whole blood was withdrawn per sampling time. Plasma was collected after whole blood centrifugation for 30 minutes at 2200 g at room temperature (RT). The plasma samples were stored at −80° C. until analysis.
For bioanalytical determination of constructs and control article in monkey plasma, plasma samples were tested for levels of constructs and the control using ELISA based PK assays. The detection of control and constructs in the ELISA assays is based on the binding of these Nanobodies with vWF and the assay set-ups are as such that total vWF-binding Nanobody is detected.
For the reference (SEQ ID NO:165) and the construct of SEQ ID NO:167, 96-well microtiter plates (Maxisorp, Nunc, Wiesbaden, Germany) were coated overnight at 4° C. with neutravidin (Pierce) in 10:10 buffer at 3 μg/ml. Wells were aspirated and blocked for 1 hour at RT with PBS/1% casein. After this blocking step, wells were washed with PBS/0.05% Tween20. A biotinylated bivalent Nanobody against the constructs was added to the neutravidin coated plate at 2 μg/ml in PBS/0.1% casein and incubated for 1 hour at RT. After the incubation step of this capture tool, wells were washed 3 times with PBS/0.05% Tween20.
Preparations of the standards, QC samples and dilutions of the test samples were performed in a non-coated (polypropylene) plate. For the standard curve and QC-samples, solutions at the required concentrations were prepared in PBS/0.1% casein and spiked into 100% monkey plasma. To prepare standards and QC samples, a 1/100 dilution of the pure monkey plasma dilutions was made in IgM-Reducing Agent (Immunochemistry Technologies, Bloomington, USA) supplemented with 2.5% pooled human plasma (referred to as sample diluent). For the test samples, dilution factors for the test samples were estimated, and ranged between 1/100 to 1/9000 for the reference of SEQ ID NO:165 tests and between 1/100 and 12000 for the construct of SEQ ID NO: 167. Samples were diluted 1/100 in sample diluent in a first step, and if needed, further dilution was done in sample diluent supplemented with 1% cynomolgus plasma.
Standards, QC samples and diluted test samples were transferred onto the coated plate and incubated for 1 hour at RT. Afterwards the plates were washed followed by a complexation step with purified vWF (ZLB Behring). vWF diluted to 2.5 μg/ml for the assay for the reference of SEQ ID NO:165 and to 3 μg/ml for the assay for the construct of SEQ ID NO: 167 in PBS/0.1% casein was incubated on the plates for 30 minutes at RT. Plates were washed and Nanobody/vWF complexes bound to the capture tool detected with Rabbit anti-human vWF Ab (Dako, Denmark), diluted 1/2000 in PBS/0.1% casein and incubated for 30 minutes at RT. After washing, a 1/15000 dilution in PBS/0.1% casein of Horse-Radish-Peroxidase labelled goat anti-rabbit Ab (Dako, Denmark) was added to the plate and incubated for 30 minutes at RT. The enzyme coupled to the Ab catalyzes a chemical reaction with the substrate sTMB (3,3′,5,5′-tetramethylbenzidine, SDT reagents, Brussels, Belgium), resulting in a colorimetric change. After stopping this reaction after 10 minutes using HC1 (1N), the intensity of the colour was measured using a spectrophotometer at 450 nm. […]

[4] = target: Cynomolgus monkey serum albumin (Macaca fascicularis, UniProt A2V9Z4); experiment: Surface plasmon resonance (BIAcore 3000) of MycHis tagged 2D3-Expedite fusions, Example 10; format: binding; details: for ka / koff (dissociation rate constant): Cynomolgus monkey serum albumin; for ka: chip ~3000 RU; for binding to CSA compared to 2D3-9GS-56E4-MycHis: FIG. 8B
Experimental: (§1) The binding of the resulting 2D3-9GS-56E4-MycHis, 2D3-9GS-59C2-MycHis, 2D3-9GS-59F2-MycHis and 2D3-9GS-59H12-MycHis fusion proteins to human and cynomolgus serum albumin (HSA and CSA respectively) was determined using surface plasmon resonance analysis. For this purpose, binding to HSA and CSA was assessed in BIAcore™ 3000, by injecting concentration series of the fusion proteins ranging from 2 μM to 200 nM on a CM5 chip coated with ˜3000 RU HSA or CSA. Coating of the chip (CM5) was performed by amine coupling using NHS/EDC for activation and ethanolamine for deactivation (Biacore amine coupling kit). HBS-EP was used as flow buffer at a rate of 45 μl min-1. 90 μl of sample was injected for 120 s.

[5] = target: human serum albumin (Homo sapiens, UniProt P02768); experiment: as above; format: binding; details: for binding to HSA compared to 2D3-9GS-56E4-MycHis: FIG. 8A; for ka / dissociation rate constant (koff): Human serum albumin; for ka: chip ~3000 RU
Experimental: as §1

Sequence of Cynomolgus monkey serum albumin (A2V9Z4 25-608): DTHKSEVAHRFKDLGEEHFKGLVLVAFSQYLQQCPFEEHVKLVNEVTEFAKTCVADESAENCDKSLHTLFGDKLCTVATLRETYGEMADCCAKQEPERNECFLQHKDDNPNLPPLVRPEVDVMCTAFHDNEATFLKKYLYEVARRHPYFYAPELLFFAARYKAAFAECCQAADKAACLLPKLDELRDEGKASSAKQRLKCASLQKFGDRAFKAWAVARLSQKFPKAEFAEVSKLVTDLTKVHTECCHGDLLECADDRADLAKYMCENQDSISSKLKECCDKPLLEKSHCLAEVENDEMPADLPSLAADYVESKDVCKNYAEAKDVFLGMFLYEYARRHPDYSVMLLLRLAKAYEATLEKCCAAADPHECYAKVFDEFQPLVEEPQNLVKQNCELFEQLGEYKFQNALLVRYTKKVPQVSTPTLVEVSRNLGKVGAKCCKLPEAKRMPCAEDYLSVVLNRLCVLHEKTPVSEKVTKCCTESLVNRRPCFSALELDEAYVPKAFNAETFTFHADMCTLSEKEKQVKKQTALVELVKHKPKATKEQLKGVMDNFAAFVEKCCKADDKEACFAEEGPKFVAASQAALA

Row | Molecule | Tonset values [1] [min] | AUC below T [1] [% RICO * h] | Time below T [1] [h] | Tonset [1] [h] | Toffset [1] [h] | AUCinf ([3]; iv) [µg·h/mL] | C0 ([3]; iv) [ng/mL] | ka [4] | koff (dissociation rate constant) [4] [s⁻¹] | binding to CSA compared to 2D3-9GS-56E4-MycHis [4] | binding to HSA compared to 2D3-9GS-56E4-MycHis [5] | ka [5] | dissociation rate constant (koff) [5] [s⁻¹] | further results
1 | B1 | ~5 | 1709 | 202 | 0.079 | 202 | 4140 | 69400 |  |  |  |  |  |  | mean AUC under the threshold increase relative to vWF0001 [1]: 259 fold; time below the threshold increase relative to vWF0001 [1]: 167 fold; Effective concentration compared to VWF0001 ([2]; FIG. 12): similar; inhibition of platelet adhesion to fibrillar collagen at arterial shear rate ([2]; citrated human blood, wall shear rate 1600 s^−1, FIG. 12): dose-dependently and completely inhibit; Vdss lower relative to vWF0001 [3]: 19 fold; dominant half-life (t½ dominant) increase relative to vWF0001 [3]: 158 fold; mean CL decrease compared to the control [3]: 67 fold
2 | B2 | ~5 | 379 | 39.9 | 0.079 | 40.0 | 1320 | 48900 |  |  |  |  |  |  | mean AUC under the threshold increase relative to vWF0001 [1]: 57 fold; time below the threshold increase relative to vWF0001 [1]: 33 fold; Vdss lower relative to vWF0001 [3]: 12 fold; dominant half-life (t½ dominant) increase relative to vWF0001 [3]: 70 fold; mean CL decrease compared to the control [3]: 22 fold
3 | B3 | ~5 | 6.60 | 1.21 | 0.077 | 1.28 | 62.6 | 45300 |  |  |  |  |  |  | plasma level after the initial drop [3]: ~2000 ng/mL; plasma level directly after i.v. injection ([3]; iv): about 45 ug/ml
4 | B4 |  |  |  |  |  |  |  | 2.75E+03 1/ms | 0.00213 | improved binding | improved binding | 3.73E+03 1/ms | 0.00179 | 
5 | B5 |  |  |  |  |  |  |  | 3.45E+03 1/ms | 0.00441 | improved binding | improved binding | 4.59E+03 1/ms | 0.00304 | 
6 | B6 |  |  |  |  |  |  |  | 4.01E+03 1/ms | 0.00845 |  |  | 5.02E+03 1/ms | 0.00497 | 
7 | B7 |  |  |  |  |  |  |  | 4.85E+03 1/ms | 0.00504 | improved binding | improved binding | 6.14E+03 1/ms | 0.00351 | 
